The data set concerns the molecule itself. The experiment in a line: multi-angle light scattering.

B1: arrestin-1 (protein)
chain: MAACGKTNKSHVIFKKVSRDKSVTIYLGKRDYVDHVSQVEPVDGVVLVDPELVKGKKVYVTLTCAFRYGQEDIDVMGLTFRRDLYFSRVQVYPPVGAMSVLTQLQESLLKKLGDNTYPFLLTFPDYLPCSVMLQPAPQDVGKSCGVDFEVKAFASDITDPEEDKIPKKSSVRLLIRKVQHAPPEMGPQPSAEASWQFFMSDKPLNLSVSLSKEIYFHGEPIPVTVTVTNNTDKVVKKIKVSVEQIANVVLYSSDYYVKPVASEETQEKVQPNSTLTKTLVLVPLLANNRERRGIALDGKIKHEDTNLASSTIIKEGIDRTVMGILVSYHIKVKLTVSGFLGELTSSEVATEVPFRLMHPQPEDPAKESVQDENLVFEEFARQNLKDTGENTEGKKDEDAGQDE
As usually defined, the Kd is the equilibrium constant for the complex coming apart. A higher Kd goes with a looser complex. As for B1, the Kd was 57.5 µM.

These data come from paper PMC3833262 (2014).
